The results in this text go back to patent US20190077860A1 (EISAI R AND D MANAGEMENT, published 2019).

Residue numbers refer to the chain shown, from its start. Names may count otherwise.

The labels stand for the following.
T1: human EphA6 extracellular region-SEAP-His protein (human, UniProt Q9UF33 23-550)
T1 construct: extracellular domain; also called hEphA6-SEAP-His
T1 sequence (looked up): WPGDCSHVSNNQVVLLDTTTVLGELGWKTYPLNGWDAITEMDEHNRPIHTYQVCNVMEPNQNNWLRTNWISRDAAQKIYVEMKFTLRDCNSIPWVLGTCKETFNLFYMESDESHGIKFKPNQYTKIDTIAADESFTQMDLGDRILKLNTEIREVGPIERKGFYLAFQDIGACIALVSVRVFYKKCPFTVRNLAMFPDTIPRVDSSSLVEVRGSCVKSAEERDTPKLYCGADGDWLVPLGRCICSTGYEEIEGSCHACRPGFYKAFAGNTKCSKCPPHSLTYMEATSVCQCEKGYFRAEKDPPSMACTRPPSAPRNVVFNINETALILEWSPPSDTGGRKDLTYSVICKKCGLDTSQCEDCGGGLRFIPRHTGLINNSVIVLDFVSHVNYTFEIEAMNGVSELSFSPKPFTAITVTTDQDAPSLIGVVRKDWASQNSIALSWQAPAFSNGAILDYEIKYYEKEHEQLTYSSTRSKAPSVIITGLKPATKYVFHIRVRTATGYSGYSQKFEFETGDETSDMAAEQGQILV

T2: human EphA1 extracellular region-SEAP-His protein (human, UniProt P21709 26-547)
T2 construct: extracellular domain; also called hEphA1-SEAP-His
T2 sequence (looked up): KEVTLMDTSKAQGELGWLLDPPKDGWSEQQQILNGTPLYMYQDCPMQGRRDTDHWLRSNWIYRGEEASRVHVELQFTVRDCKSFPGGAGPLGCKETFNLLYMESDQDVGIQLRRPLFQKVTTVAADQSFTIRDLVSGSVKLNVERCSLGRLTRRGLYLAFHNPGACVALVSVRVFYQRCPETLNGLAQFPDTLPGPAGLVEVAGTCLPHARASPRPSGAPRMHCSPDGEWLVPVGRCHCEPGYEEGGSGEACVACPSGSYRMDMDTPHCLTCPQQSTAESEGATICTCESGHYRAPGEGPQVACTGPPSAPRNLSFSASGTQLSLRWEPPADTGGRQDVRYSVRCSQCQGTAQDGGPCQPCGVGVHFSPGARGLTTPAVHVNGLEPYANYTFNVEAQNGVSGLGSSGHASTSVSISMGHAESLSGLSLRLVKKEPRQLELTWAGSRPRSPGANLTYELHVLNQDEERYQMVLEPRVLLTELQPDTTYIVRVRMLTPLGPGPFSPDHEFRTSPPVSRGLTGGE

T3: human EphB3 extracellular region-SEAP-His protein (human, UniProt P54753 34-559)
T3 construct: extracellular domain; also called hEphB3-SEAP-His
T3 sequence (looked up): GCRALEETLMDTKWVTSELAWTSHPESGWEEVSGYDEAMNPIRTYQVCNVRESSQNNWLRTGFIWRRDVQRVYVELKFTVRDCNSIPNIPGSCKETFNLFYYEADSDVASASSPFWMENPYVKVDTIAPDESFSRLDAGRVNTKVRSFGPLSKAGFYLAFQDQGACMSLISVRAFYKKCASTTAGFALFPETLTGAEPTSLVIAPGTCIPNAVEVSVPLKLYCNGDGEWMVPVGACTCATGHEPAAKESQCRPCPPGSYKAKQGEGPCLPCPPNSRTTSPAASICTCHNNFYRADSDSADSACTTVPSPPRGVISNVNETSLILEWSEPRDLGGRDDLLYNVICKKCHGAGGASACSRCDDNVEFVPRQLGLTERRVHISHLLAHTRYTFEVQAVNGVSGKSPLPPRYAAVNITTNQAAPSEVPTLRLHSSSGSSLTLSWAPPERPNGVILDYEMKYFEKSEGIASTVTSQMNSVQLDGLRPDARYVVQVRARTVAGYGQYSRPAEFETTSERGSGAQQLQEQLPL

T4: human EphB2 extracellular region-SEAP-His protein (human, UniProt P29323 19-543)
T4 construct: extracellular domain; also called hEphB2-SEAP-His
T4 sequence (looked up): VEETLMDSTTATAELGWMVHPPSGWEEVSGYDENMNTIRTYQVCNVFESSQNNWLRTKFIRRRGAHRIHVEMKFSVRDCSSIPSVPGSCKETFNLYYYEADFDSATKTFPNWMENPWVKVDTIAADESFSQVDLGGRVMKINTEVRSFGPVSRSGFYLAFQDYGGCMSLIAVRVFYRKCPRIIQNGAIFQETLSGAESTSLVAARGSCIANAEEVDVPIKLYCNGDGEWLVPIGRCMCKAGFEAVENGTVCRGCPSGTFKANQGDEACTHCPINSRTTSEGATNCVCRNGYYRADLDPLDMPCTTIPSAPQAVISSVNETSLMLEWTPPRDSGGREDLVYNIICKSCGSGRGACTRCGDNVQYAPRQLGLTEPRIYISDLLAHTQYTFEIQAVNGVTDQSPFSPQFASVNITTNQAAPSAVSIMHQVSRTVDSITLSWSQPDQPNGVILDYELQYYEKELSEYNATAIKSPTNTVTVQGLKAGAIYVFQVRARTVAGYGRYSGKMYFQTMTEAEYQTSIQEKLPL

B1: humanized antibody No. 76 (antibody, human IgG1, kappa)
heavy: QVQLVQSGSELKKPGASVKVSCKASGYTFTDYSMHWVRQAPGQGLKWMGWINTETGEPTYAQGFTGRFVFSLDTSVSTAYLQISSLKAEDTAVYYCARIPLYYYGSRYWYFDVWGQGTTVTVSSASTKGPSVFPLAPSSKSTSGGTAALGCLVKDYFPEPVTVSWNSGALTSGVHTFPAVLQSSGLYSLSSVVTVPSSSLGTQTYICNVNHKPSNTKVDKRVEPKSCDKTHTCPPCPAPPAAAPSVFLFPPKPKDTLMISRTPEVTCVVVDVSHEDPEVQFNWYVDGVEVHNAKTKPREEQFNSTFRVVSVLTVVHQDWLNGKEYKCKVSNKGLPAPIEKTISKTKGQPREPQVYTLPPSREEMTKNQVSLTCLVKGFYPSDIAVEWESNGQPENNYKTTPPMLDSDGSFFLYSKLTVDKSRWQQGNVFSCSVMHEALHNHYTQKSLSLSPG
light: DIQMTQSPSSLSASVGDRVTITCRASENIYRNLAWYQQKPGKAPKLLVYAATNLADGVPSRFSGSGSGTDYTLTISSLQPEDFATYYCQHFWGTPWTFGQGTKVEIKRTVAAPSVFIFPPSDEQLKSGTASVVCLLNNFYPREAKVQWKVDNALQSGNSQESVTEQDSKDSTYSLSSTLTLSKADYEKHKVYACEVTHQGLSSPVTKSFNRGEC
notes: human Ig kappa; also called L1-4/HA2
B2: humanized antibody No. 75 (antibody, human IgG1, kappa)
heavy: B1 heavy with K46E
light: B1 light
notes: constant region: human IgG1 CH1 and hinge, human IgG2 CH2 and CH3 with V234A, G237A, no C-terminal Lys; human Ig kappa; also called L1-4/HA1
B3: humanized antibody No. 82 (antibody, human IgG1, kappa)
heavy: B1 heavy
light: B1 light with V48L, P80S
notes: human Ig kappa; also called L1-5/HA2
B4: humanized antibody No. 69 (antibody, human IgG1, kappa)
heavy: B1 heavy with V2I, Q62D, G63D, T65K
light: B1 light
notes: human Ig kappa; also called L1-4/HK4
B5: humanized antibody No. 81 (antibody, human IgG1, kappa)
heavy: B1 heavy with K46E
light: B1 light with V48L, P80S
notes: human Ig kappa; also called L1-5/HA1
B6: humanized antibody No. 83 (antibody, human IgG1, kappa)
heavy: B1 heavy with V2I
light: B1 light with V48L, P80S
notes: human Ig kappa; also called L1-5/HA4
B7: humanized antibody No. 78 (antibody, human IgG1, kappa)
heavy: B1 heavy with Q62D, G63D, T65K
light: B1 light
notes: human Ig kappa; also called L1-4/HK2
B8: humanized antibody No. 84 (antibody, human IgG1, kappa)
heavy: B1 heavy with K46E, Q62D, G63D, T65K
light: B1 light with V48L, P80S
notes: human Ig kappa; also called L1-5/HK1
B9: humanized antibody No. 77 (antibody, human IgG1, kappa)
heavy: B1 heavy with K46E, Q62D, G63D, T65K
light: B1 light
notes: human Ig kappa; also called L1-4/HK1
B10: humanized antibody No. 85 (antibody, human IgG1, kappa)
heavy: B1 heavy with Q62D, G63D, T65K
light: B1 light with V48L, P80S
notes: human Ig kappa; also called L1-5/HK2
B11: humanized antibody No. 67 (antibody, human IgG1, kappa)
heavy: B1 heavy with V2I
light: B1 light
notes: human Ig kappa; also called L1-4/HA4

The first assay deals with T1, human EphA6 extracellular …. The assay is described as follows: ELISA. (In general: In an ELISA, binding on a coated surface is turned into a signal by an enzyme label.)
In the case of B1, the “A450 as % of hEphA4-SEAP-His” value came to 7.9%.
For B2, the “A450 as % of hEphA4-SEAP-His” value worked out at 8.3%.
With B3, the “A450 as % of hEphA4-SEAP-His” value worked out at 8.7%.
The same measure, in the same setting: under B4 stands 9.5%; under B5, 8.8%; under B6, 7.5%.
For the molecule B7, the “A450 as % of hEphA4-SEAP-His” value came to 10%.
Take B8: the “A450 as % of hEphA4-SEAP-His” value is 6%.
As for B9, the “A450 as % of hEphA4-SEAP-His” value is 6%.
Consider B10, for which the “A450 as % of hEphA4-SEAP-His” value is 6.2%.
On to B11, for which the “A450 as % of hEphA4-SEAP-His” value is 7.3%.

Another assay deals with SEAP-His (UniProt P05187 23-511). The assay can be described thus: ELISA.
SEAP-His, sequence (P05187 23-511): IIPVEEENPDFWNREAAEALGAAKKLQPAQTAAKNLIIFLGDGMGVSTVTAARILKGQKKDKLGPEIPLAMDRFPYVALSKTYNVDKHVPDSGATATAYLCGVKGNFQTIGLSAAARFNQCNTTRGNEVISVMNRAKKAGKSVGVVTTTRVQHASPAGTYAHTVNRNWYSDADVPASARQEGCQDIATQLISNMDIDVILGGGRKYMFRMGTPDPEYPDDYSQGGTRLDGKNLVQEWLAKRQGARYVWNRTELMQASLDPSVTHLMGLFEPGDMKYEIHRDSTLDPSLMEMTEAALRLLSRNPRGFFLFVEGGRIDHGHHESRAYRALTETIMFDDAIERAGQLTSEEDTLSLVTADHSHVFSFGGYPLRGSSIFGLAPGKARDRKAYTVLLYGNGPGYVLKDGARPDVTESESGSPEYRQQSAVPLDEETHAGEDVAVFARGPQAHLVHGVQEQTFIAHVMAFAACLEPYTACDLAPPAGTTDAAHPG
For the molecule B1, the “A450 as % of hEphA4-SEAP-His” value was 5.5%.
For the molecule B2, the “A450 as % of hEphA4-SEAP-His” value worked out at 4.4%.
Still for that read-out and setting: under B3 stands 5.9%; under B4, 6.1%.
Still for that read-out and setting: under B5 stands 5%.
Still for that read-out and setting: as for B6, the figure is 6.5%.
For B7, the “A450 as % of hEphA4-SEAP-His” value was found to be 5.3%.
On the same count and under the same terms, as for B8, the figure is 5.1%.
As to B9, the “A450 as % of hEphA4-SEAP-His” value amounted to 4.7%.
The same measure, in the same setting: under B10 stands 5.3%; under B11, 5%.

The target in the next assay is T2, human EphA1 extracellular …. The assay can be described thus: ELISA.
Take B1: the “A450 as % of hEphA4-SEAP-His” value is 5.1%.
On the same count and under the same terms, under B2 stands 4.7%; under B3, 5.4%; under B4, 5.7%.
Take B5: the “A450 as % of hEphA4-SEAP-His” value was 4.4%.
The same measure, in the same setting: as for B6, the figure is 5.7%; as for B7, 6.6%.
As for B8, the “A450 as % of hEphA4-SEAP-His” value was 5.2%.
The same measure, in the same setting: as for B9, the figure is 4.5%.
Same read-out and setting: under B10 stands 5%; under B11, 4.6%.

A further assay has as its target T3, human EphB3 extracellular …. The assay can be described thus: ELISA.
In the case of B1, the “A450 as % of hEphA4-SEAP-His” value stood at 5%.
For the molecule B2, the “A450 as % of hEphA4-SEAP-His” value amounted to 4.7%.
Same read-out and setting: under B3 stands 5.6%; under B4, 5.9%.
Still for that read-out and setting: as for B5, the figure is 4.9%; as for B6, 5.7%; as for B7, 5.2%.
The same measure, in the same setting: under B8 stands 4.8%; under B9, 4.6%.
On to B10, for which the “A450 as % of hEphA4-SEAP-His” value was determined as 5.2%.
Turning to B11, the “A450 as % of hEphA4-SEAP-His” value was determined as 4.9%.

The target of the next assay is T4, human EphB2 extracellular …. The assay is described as follows: ELISA.
As to B1, the “A450 as % of hEphA4-SEAP-His” value was determined as 4.9%.
As to B2, the “A450 as % of hEphA4-SEAP-His” value turned out to be 4.5%.
On the same count and under the same terms, under B3 stands 5.6%; under B4, 5.5%; under B5, 5%.
Take B6: the “A450 as % of hEphA4-SEAP-His” value was 5.6%.
On the same count and under the same terms, under B7 stands 5.1%; under B8, 4.9%.
As for B9, the “A450 as % of hEphA4-SEAP-His” value came out at 4.5%.
On the same count and under the same terms, under B10 stands 5.1%; under B11, 4.7%.

The target in the next assay is T5, human EphA4 extracellular region-SEAP-His protein (human, UniProt P54764 20-547).
T5 construct: also called hEphA4-SEAP-His
T5 sequence (P54764 20-547): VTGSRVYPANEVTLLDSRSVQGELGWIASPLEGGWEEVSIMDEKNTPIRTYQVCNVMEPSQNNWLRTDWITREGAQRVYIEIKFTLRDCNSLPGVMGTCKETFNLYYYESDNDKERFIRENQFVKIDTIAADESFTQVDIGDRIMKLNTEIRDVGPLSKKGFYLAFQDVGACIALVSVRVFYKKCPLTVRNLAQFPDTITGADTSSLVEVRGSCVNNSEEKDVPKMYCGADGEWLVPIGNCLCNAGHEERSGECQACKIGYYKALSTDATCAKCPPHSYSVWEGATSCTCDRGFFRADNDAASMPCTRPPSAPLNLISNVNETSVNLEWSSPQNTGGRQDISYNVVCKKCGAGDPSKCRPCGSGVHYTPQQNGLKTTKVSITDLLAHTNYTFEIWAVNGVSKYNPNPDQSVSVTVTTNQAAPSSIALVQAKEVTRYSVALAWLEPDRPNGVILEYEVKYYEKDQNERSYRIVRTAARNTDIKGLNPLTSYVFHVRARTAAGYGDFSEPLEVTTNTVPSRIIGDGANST
The assay can be described thus: ELISA.
Consider B1, for which the “A450 as % of hEphA4-SEAP-His” value is 100%.
As to B2, the “A450 as % of hEphA4-SEAP-His” value amounted to 100%.
Same read-out and setting: as for B3, the figure is 100%.
Still for that read-out and setting: as for B4, the figure is 100%.
Take B5: the “A450 as % of hEphA4-SEAP-His” value was 100%.
For the molecule B6, the “A450 as % of hEphA4-SEAP-His” value amounted to 100%.
Turning to B7, the “A450 as % of hEphA4-SEAP-His” value was 100%.
The same measure, in the same setting: as for B8, the figure is 100%; as for B9, 100%; as for B10, 100%.
Consider B11, for which the “A450 as % of hEphA4-SEAP-His” value worked out at 100%.
